In article PMC5709735, “Real‐time detection of condensin‐driven DNA compaction reveals a multistep binding mechanism” (The EMBO Journal, 2017):

Test system: T1, Nc1ncnc2c1ncn2[C@@H]1O[C@H](COP(=O)(O)OP(=O)(O)OP(=O)(O)O)[C@@H](O)[C@H]1O
T1 construct: pentameric holocomplex overexpressed in budding yeast from galactose-inducible promoters; His12 tag on Brn1, triple StrepII tag on Smc4; gel-filtered monomeric complexes; with Condensin complex subunit 2; Condensin complex subunit 1; Condensin complex subunit 3
Experiment: single-molecule magnetic tweezers, DNA compaction rate vs ATP, Michaelis-Menten fit
Assay type: biochemical, Saccharomyces cerevisiae
Conditions: 8.6 nM condensin, tethered 20-kb DNA under constant force, 10 mM HEPES-NaOH pH 7.9, 125 mM NaCl, 5 mM MgCl2, 1 mM DTT, error is 95% confidence interval, read-out is compaction rate, not ATP turnover

## S. cerevisiae condensin holocomplex (Smc2–Smc4–Brn1–Ycs4–Ycg1) (Saccharomyces cerevisiae S288C)
  Km: 1400 ± 1500 µM
